Molecular target: human cyclophilin A (human) (UniProt P62937)
Assay: SPR

human cyclophilin A (human), sequence (P62937 whole entry): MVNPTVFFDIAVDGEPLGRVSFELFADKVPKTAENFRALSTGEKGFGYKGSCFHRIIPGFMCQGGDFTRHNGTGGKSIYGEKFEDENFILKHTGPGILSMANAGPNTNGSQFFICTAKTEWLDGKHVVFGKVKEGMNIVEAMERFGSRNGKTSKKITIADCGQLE

Row | Substance | Kd
1 | SARS-CoV-2 RBD, Deltacron variant (AY.4/BA.1) (from UniProt P0DTC2) (domain or fragment) | 18.6 nM
2 | SARS-CoV-2 RBD, Omicron variant (BA.1, B.1.1.529) (from UniProt P0DTC2) (domain or fragment) | 26.4 nM

Source: paper PMC9874840
